B1: constructed antibody B23 (bispecific antibody, human IgG4 S228P, kappa)
heavy: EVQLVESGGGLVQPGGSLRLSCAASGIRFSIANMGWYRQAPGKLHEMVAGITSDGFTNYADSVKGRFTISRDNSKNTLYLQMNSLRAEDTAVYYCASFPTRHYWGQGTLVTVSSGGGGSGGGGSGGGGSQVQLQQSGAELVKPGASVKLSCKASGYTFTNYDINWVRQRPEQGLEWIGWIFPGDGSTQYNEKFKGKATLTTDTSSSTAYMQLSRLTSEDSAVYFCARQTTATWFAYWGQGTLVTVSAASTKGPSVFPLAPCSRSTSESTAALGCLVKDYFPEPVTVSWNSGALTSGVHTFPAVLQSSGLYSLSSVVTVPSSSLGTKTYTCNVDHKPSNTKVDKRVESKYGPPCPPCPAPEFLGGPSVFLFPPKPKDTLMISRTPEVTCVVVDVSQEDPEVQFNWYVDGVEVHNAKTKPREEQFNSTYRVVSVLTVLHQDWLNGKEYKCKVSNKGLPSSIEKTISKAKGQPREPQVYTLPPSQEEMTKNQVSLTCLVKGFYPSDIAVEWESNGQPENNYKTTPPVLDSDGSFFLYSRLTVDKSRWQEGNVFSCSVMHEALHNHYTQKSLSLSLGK
light: DIVMTQSPATLSVTPGDRVSLSCRASQSISDYLHWYQQKSHESPRLLIKYASQSISGIPSRFSGSGSGSDFTLSINSVEPEDVGVYYCQNGHSFPLTFGAGTKLELKRTVAAPSVFIFPPSDEQLKSGTASVVCLLNNFYPREAKVQWKVDNALQSGNSQESVTEQDSKDSTYSLSSTLTLSKADYEKHKVYACEVTHQGLSSPVTKSFNRGEC
notes: IgG4 subtype
B2: constructed antibody A24 (bispecific antibody, human IgG1, kappa)
heavy: not shown
light: B1 light
notes: IgG1 subtype
B3: constructed antibody A25 (bispecific antibody, human IgG1, kappa)
heavy: not shown
light: B1 light
notes: IgG1 subtype
B4: constructed antibody D28 (bispecific antibody, human IgG4 S228P, kappa)
heavy: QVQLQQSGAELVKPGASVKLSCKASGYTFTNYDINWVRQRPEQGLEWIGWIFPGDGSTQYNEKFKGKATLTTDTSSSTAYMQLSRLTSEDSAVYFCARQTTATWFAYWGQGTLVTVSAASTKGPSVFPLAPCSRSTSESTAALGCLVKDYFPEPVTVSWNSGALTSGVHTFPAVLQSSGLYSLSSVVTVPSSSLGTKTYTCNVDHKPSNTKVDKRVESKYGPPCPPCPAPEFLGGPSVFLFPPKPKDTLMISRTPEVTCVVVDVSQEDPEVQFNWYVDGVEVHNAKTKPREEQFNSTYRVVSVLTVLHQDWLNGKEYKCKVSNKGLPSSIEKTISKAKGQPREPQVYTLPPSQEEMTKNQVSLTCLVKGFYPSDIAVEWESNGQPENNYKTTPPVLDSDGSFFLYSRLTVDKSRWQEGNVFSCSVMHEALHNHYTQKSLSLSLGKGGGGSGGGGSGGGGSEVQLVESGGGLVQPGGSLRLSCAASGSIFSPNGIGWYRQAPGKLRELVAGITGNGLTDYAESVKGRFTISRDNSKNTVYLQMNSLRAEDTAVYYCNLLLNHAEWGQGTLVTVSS
light: B1 light
notes: IgG4 subtype

biological target: T1, human-NKP30-His (human, UniProt O14931 19-138); assay: ELISA, human-NKP30-His coated
T1 construct: Bought protein; also called NKP30 protein; NKP30-his protein; not shown: His tag
T1 sequence (looked up): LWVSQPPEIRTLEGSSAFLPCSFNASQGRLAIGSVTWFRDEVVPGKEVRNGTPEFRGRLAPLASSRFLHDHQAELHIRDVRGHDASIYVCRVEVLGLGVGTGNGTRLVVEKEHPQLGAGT
Protocol: The human-NKP30-His (purchased from ACRO Biosystems) was diluted to 0.5 μg/mL using pH 7.4 PBS buffer and 100 μL per well was added to a 96-well ELISA plate and coated overnight at 4° C. The plates were closed with 1% BSA blocking solution for 1 hour and washed 3 times with PBST. […] The plate was washed 3 times with PBST and HRP-labelled goat anti-human IgG Fc was diluted 1:20000 with sample diluent, 100 μL for each well was added and incubated for 1 h at room temperature. After washing the plate 4 times with PBST, 100 μL of TMB substrate was added into each well and incubated for 10 min at room temperature, avoiding light. Then 100 μL of 1 M HCl was added into each well to terminate the colour development reaction. The absorbance value of each well in the 96-well plate was measured on a multifunctional enzyme standard at a wavelength of 450 nm and a reference wavelength of 570 nm, absorbance value (OD) per well=OD_{450 nm}−OD_{570 nm}. The concentration of the constructed antibody was logarithmically used as the horizontal coordinate, the measured absorbance value per well as the vertical coordinate, and the Sigmoidal dose-response (Variable Slope) method (Graph Pad Prism Software, Graph Pad Software, San Diego, California) was selected for non-linear regression to obtain the binding curve between the target antibody and NKP30 protein.

Binding result, binds:
B1
B2
B3
B4
